Measurements as given in paper PMC3580588, “Fully recombinant IgG2a Fc multimers (stradomers) effectively treat collagen-induced arthritis and prevent idiopathic thrombocytopenic purpura in mice” (Arthritis Research & Therapy, 2012).
Like-named read-outs stand apart in the source and are kept apart here. Blank lines part the entries; values can stand above or below the molecule they belong to.

B3: recombinant murine IgG2a Fc (domain or fragment, mouse, UniProt P01863 98-330, looked up)
chain: EPRGPTIKPCPPCKCPAPNLLGGPSVFIFPPKIKDVLMISLSPIVTCVVVDVSEDDPDVQISWFVNNVEVHTAQTQTHREDYNSTLRVVSALPIQHQDWMSGKEFKCKVNNKDLPAPIERTISKPKGSVRAPQVYVLPPPEEEMTKKQVTLTCMVTDFMPEDIYVEWTNNGKTELNYKNTEPVLDSDGSYFMYSKLRVEKKNWVERNSYSCSVVHEGLHNHHTTKSFSRTPGK
notes: murine IgG2a Fc: hinge, CH2 and CH3 domains, no Fab region; Runs as a homodimer (45 kDa) on non-reducing SDS-PAGE, with a weaker band at about 90 kDa; source: recombinant, from a cDNA construct; host and purification are stated for the stradomers only (HEK293, protein A-derived column)

Assays:
recombinant mouse FcγRI = target: T1, recombinant mouse FcγRI (mouse, UniProt P26151 25-297); assay: SPR; Biacore 3000 or T100; receptors immobilised by amine coupling on CM4 (FcγRs) or CM5 (SIGN-R1) chips; samples 1,000 nM to 0.5 nM in HBS-EP at 20 μl/min; 1:1 Langmuir kinetic model; molecular mass of 50 kDa assigned to homodimer isolates and 150 kDa to all other preparations
T1 construct: mouse Fc gamma receptor I, recombinant; source: bought: R&D Systems
T1 sequence (looked up): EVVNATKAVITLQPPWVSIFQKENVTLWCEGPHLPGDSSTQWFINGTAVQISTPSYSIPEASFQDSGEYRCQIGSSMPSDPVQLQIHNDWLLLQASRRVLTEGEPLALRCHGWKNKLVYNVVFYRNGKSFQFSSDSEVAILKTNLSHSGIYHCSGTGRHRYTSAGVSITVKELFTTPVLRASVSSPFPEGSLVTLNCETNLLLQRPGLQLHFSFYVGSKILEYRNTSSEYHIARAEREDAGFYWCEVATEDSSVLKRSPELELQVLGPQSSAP

[1] = target: recombinant mouse FcγRIII (mouse) (UniProt P08508); assay: as above
[2] = target: recombinant mouse FcγRIV (mouse); assay: as above
[3] = target: recombinant mouse FcγRIIb (mouse) (UniProt P08101); assay: as above
[4] = target: recombinant mouse SIGN-R1 (mouse) (UniProt Q8CJ91); assay: as above
[5] = target: recombinant mouse FcγRI (mouse) (UniProt P26151); assay: as above
[6] = target: T2, recombinant mouse SIGN-R1 (mouse), Q8CJ91; assay: as above
T2 chain: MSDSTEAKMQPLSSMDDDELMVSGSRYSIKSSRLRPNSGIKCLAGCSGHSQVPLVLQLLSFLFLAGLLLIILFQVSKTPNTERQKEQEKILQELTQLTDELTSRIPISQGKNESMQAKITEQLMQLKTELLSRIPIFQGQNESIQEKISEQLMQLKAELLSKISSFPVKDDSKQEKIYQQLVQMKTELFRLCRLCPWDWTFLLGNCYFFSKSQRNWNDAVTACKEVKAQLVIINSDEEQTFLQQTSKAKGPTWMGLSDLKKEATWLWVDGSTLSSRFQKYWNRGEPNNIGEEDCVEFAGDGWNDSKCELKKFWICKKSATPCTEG

[7] = target: the molecule itself; assay: SDS-PAGE, nonreduced against reduced; 0.5 to 2 μg of purified protein on 4-12% Bis-Tris gels, Coomassie stain; multimers present under denaturing but not reducing conditions (covalently linked)
[8] = target: B3; assay: SPR; Biacore 3000 or T100; receptors immobilised by amine coupling on CM4 (FcγRs) or CM5 (SIGN-R1) chips; samples 1,000 nM to 0.5 nM in HBS-EP at 20 μl/min; 1:1 Langmuir kinetic model; molecular mass of 50 kDa assigned to homodimer isolates and 150 kDa to all other preparations; conditions: both partners purified

Molecule: 2A-2HC: stradomer with hinge of human IgG2 linked to the carboxy terminus of murine IgG2a Fc (unfractionated) (Fc fusion)
Kd (recombinant mouse FcγRI): 9.12 nM | Kd [1]: 4.2 nM | Kd [2]: 3.03 nM | Kd [3]: 3.3 nM

Molecule: 2A-2HN: stradomer with hinge of human IgG2 linked to the amino terminus of murine IgG2a Fc (Fc fusion)
Kd (recombinant mouse FcγRI): 16.3 nM | Kd [1]: 4.4 nM | Kd [2]: 7.6 nM | Kd [4]: 109 nM | Kd [3]: 3.4 nM

Molecule: 2A-ILZC: stradomer with the isoleucine zipper linked to the carboxy terminus of murine IgG2a Fc (Fc fusion)
Kd [5]: 63.4 nM | Kd [1]: 151 nM | Kd [2]: 63.6 nM | Kd [3]: 455 nM

Molecule: 2A-ILZN: stradomer with the isoleucine zipper linked to the amino terminus of murine IgG2a Fc (Fc fusion)
Kd [5]: 6.71 nM | Kd [1]: 2.3 nM | Kd [2]: 0.46 nM | Kd [3]: 3.8 nM

B1: 2A-ILZN: stradomer with the isoleucine zipper linked to the amino terminus of murine IgG2a Fc (Fc fusion)
chain: EPRGPTIKPCPPCKCPAPNLLGGPSVFIFPPKIKDVLMISLSPIVTCVVVDVSEDDPDVQISWFVNNVEVHTAQTQTHREDYNSTLRVVSALPIQHQDWMSGKEFKCKVNNKDLPAPIERTISKPKGSVRAPQVYVLPPPEEEMTKKQVTLTCMVTDFMPEDIYVEWTNNGKTELNYKNTEPVLDSDGSYFMYSKLRVEKKNWVERNSYSCSVVHEGLHNHHTTKSFSRTPGK
modifications: not checked
Kd [6]: 134 nM

B2: 2A-ILZC: stradomer with the isoleucine zipper linked to the carboxy terminus of murine IgG2a Fc (Fc fusion)
chain: EPRGPTIKPCPPCKCPAPNLLGGPSVFIFPPKIKDVLMISLSPIVTCVVVDVSEDDPDVQISWFVNNVEVHTAQTQTHREDYNSTLRVVSALPIQHQDWMSGKEFKCKVNNKDLPAPIERTISKPKGSVRAPQVYVLPPPEEEMTKKQVTLTCMVTDFMPEDIYVEWTNNGKTELNYKNTEPVLDSDGSYFMYSKLRVEKKNWVERNSYSCSVVHEGLHNHHTTKSFSRTPGK
modifications: not checked
Kd [6]: 43.9 nM

Molecule: B3
Kd (recombinant mouse FcγRI; both partners purified): 17.4 nM | stoichiometry N [7]: 2

Other lines, results leading:

Kd [8]: 289 nM
B4: recombinant mouse FcγRIIb (receptor, UniProt P08101 30-210, looked up)
chain: THDLPKAVVKLEPPWIQVLKEDTVTLTCEGTHNPGNSSTQWFHNGRSIRSQVQASYTFKATVNDSGEYRCQMEQTRLSDPVDLGVISDWLLLQTPQLVFLEGETITLRCHSWRNKLLNRISFFHNEKSVRYHHYSSNFSIPKANHSHSGDYYCKGSLGRTLHQSKPVTITVQGPKSSRSLP
notes: mouse Fc gamma receptor IIb, recombinant; His tag and catalogue number are told for the biolayer interferometry only; also called His-tagged mouse FcγRIIb; source: bought: R&D Systems

Kd [8]: 248 nM
B5: recombinant mouse FcγRIII (receptor, UniProt P08508 31-215, looked up)
chain: ALPKAVVKLDPPWIQVLKEDMVTLMCEGTHNPGNSSTQWFHNGRSIRSQVQASYTFKATVNDSGEYRCQMEQTRLSDPVDLGVISDWLLLQTPQRVFLEGETITLRCHSWRNKLLNRISFFHNEKSVRYHHYKSNFSIPKANHSHSGDYYCKGSLGSTQHQSKPVTITVQDPATTSSISLVWYHT
notes: mouse Fc gamma receptor III, recombinant; His tag and catalogue number are told for the biolayer interferometry only; also called His-tagged mouse FcγRIII; source: bought: R&D Systems

Kd [8]: 27.8 nM
B6: recombinant mouse FcγRIV (receptor, UniProt A0A0B4J1G0 21-203, looked up)
chain: GLQKAVVNLDPKWVRVLEEDSVTLRCQGTFSPEDNSIKWFHNESLIPHQDANYVIQSARVKDSGMYRCQTALSTISDPVQLEVHMGWLLLQTTKWLFQEGDPIHLRCHSWQNRPVRKVTYLQNGKGKKYFHENSELLIPKATHNDSGSYFCRGLIGHNNKSSASFRISLGDPGSPSMFPPWHQ
notes: mouse Fc gamma receptor IV, recombinant; source: bought: R&D Systems
